Patent publication US20250145711A1 (Janssen / Centocor, published 2025)
Substitutions are numbered along the chain they refer to. Names and notes keep the numbering of the source.

B1: CD3B2030 (scFv)
scFv: QVQLVQSGAEVKKPGSSVKVSCKASGYTFTRSTMHWVKQAPGQGLEWIGYINPSSAYTNYNQKFQGRVTLTADKSTSTAYMELSSLRSEDTAVYYCASPQVHYDYNGFPYWGQGTLVTVSSGGSEGKSSGSGSESKSTGGSEIVLTQSPATLSASPGERVTLSCSASSSVSYMNWYQQKPGQAPRRWIYDSSKLASGVPARFSGSGSGRDYTLTISSLEPEDFAVYYCQQWSRNPPTFGGGTKVEIK
B2: CD3B2089 (scFv)
scFv: B1 scFv with K38R, I48M, N61A
B3: CD3B2051 N106E (scFv)
scFv: B1 scFv with I48M, N106E, W187L
B4: CD3B2089 N106I (scFv)
scFv: B1 scFv with K38R, I48M, N61A, N106I
B5: CD3B2051 N106V (scFv)
scFv: B1 scFv with I48M, N106V, W187L
B6: CD3B2051 N106R (scFv)
scFv: B1 scFv with I48M, N106R, W187L
B7: CD3B2089 N106R (scFv)
scFv: B1 scFv with K38R, I48M, N61A, N106R
B8: CD3B2051 N106S (scFv)
scFv: B1 scFv with I48M, N106S, W187L
B9: CD3B2051 N106K (scFv)
scFv: B1 scFv with I48M, N106K, W187L
B10: CD3B2051 (scFv)
scFv: B1 scFv with I48M, W187L
B11: CD3B2089 N106F (scFv)
scFv: B1 scFv with K38R, I48M, N61A, N106F
B12: CD3B2051 N106H (scFv)
scFv: B1 scFv with I48M, N106H, W187L
B13: CD3B2051 N106G (scFv)
scFv: B1 scFv with I48M, N106G, W187L
B14: CD3B2051 N106P (scFv)
scFv: B1 scFv with I48M, N106P, W187L
B15: CD3B2089 N106T (scFv)
scFv: B1 scFv with K38R, I48M, N61A, N106T
B16: CD3B2089 N106E (scFv)
scFv: B1 scFv with K38R, I48M, N61A, N106E
B17: CD3B2051 N106A (scFv)
scFv: B1 scFv with I48M, N106A, W187L
B18: CD3B2030 N106Q (scFv)
scFv: B1 scFv with N106Q
notes: also called CD3B2030 NtoQ
B19: CD3B2089 N106S (scFv)
scFv: B1 scFv with K38R, I48M, N61A, N106S
B20: BC3B102 (bispecific antibody, human IgG1, kappa, L234A L235A)
chain: QVQLVQSGAEVKKPGSSVKVSCKASGYTFTRSTMHWVKQAPGQGLEWIGYINPSSAYTNYNQKFQGRVTLTADKSTSTAYMELSSLRSEDTAVYYCASPQVHYDYNGFPYWGQGTLVTVSSGGSEGKSSGSGSESKSTGGSEIVLTQSPATLSASPGERVTLSCSASSSVSYMNWYQQKPGQAPRRWIYDSSKLASGVPARFSGSGSGRDYTLTISSLEPEDFAVYYCQQWSRNPPTFGGGTKVEIKEPKSSDKTHTCPPCPAPEAAGGPSVFLFPPKPKDTLMISRTPEVTCVVVSVSHEDPEVKFNWYVDGVEVHNAKTKPREEQYNSTYRVVSVLTVLHQDWLNGKEYKCKVSNKALPAPIEKTISKAKGQPREPQVYVYPPSREEMTKNQVSLTCLVKGFYPSDIAVEWESNGQPENNYKTTPPVLDSDGSFALVSKLTVDKSRWQQGNVFSCSVMHEALHNHYTQKSLSLSPG
heavy: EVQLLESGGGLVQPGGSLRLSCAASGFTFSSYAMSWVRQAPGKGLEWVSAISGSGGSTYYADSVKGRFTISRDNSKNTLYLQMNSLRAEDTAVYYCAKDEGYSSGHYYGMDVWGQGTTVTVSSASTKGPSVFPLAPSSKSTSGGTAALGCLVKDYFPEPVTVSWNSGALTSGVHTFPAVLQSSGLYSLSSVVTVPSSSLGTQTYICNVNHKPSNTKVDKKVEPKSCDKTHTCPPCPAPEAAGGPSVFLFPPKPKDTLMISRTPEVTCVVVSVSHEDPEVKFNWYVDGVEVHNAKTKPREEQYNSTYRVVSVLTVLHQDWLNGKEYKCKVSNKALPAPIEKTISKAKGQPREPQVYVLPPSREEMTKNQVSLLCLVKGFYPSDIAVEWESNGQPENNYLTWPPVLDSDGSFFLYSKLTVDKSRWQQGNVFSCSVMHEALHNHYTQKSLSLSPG
light: EIVLTQSPGTLSLSPGERATLSCRASQSISSSFLTWYQQKPGQAPRLLIYGASSRATGIPDRFSGGGSGTDFTLTISRLEPEDFAVYYCQHYGSSPMYTFGQGTKLEIKRTVAAPSVFIFPPSDEQLKSGTASVVCLLNNFYPREAKVQWKVDNALQSGNSQESVTEQDSKDSTYSLSSTLTLSKADYEKHKVYACEVTHQGLSSPVTKSFNRGEC
notes: IgG1 BCMAxCD3; HC1: CD3B2030 HL scFv-Fc; also called BC3B102.001; B2030 HL
B21: BC3B112 (bispecific antibody, human IgG1, kappa, L234A L235A)
chain: B20 chain with K38R, I48M, N61A, N106A
heavy: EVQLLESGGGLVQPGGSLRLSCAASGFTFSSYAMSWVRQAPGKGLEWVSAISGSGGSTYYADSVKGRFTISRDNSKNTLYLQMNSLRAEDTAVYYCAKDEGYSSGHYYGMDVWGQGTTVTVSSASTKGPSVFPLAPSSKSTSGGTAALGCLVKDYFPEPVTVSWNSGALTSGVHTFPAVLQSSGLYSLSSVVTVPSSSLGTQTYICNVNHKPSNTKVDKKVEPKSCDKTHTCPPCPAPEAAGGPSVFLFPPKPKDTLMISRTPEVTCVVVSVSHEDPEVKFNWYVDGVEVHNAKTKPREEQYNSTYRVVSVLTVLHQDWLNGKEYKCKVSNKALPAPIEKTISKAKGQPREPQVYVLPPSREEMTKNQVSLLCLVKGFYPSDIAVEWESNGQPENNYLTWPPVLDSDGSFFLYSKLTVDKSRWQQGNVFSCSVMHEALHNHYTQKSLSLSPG
light: B20 light
notes: IgG1 BCMAxCD3; HC1: CD3B2089-N106A HL scFv-Fc; also called BC3B112.001; B2089 HL NtoA
B22: BC3B111 (bispecific antibody, human IgG1, kappa, L234A L235A)
chain: B20 chain with K38R, I48M, N61A
heavy: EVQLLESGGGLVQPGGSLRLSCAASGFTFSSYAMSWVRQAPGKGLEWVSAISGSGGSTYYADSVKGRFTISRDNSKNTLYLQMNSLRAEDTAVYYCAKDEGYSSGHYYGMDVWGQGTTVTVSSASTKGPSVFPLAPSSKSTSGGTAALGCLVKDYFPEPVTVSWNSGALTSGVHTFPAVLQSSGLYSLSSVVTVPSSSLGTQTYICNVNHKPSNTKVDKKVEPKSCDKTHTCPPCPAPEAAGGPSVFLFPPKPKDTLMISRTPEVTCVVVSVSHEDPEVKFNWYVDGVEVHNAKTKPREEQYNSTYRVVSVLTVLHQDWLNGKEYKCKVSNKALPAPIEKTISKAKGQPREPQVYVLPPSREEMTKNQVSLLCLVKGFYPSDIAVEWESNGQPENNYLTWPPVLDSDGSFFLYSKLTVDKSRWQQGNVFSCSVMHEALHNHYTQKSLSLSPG
light: B20 light
notes: IgG1 BCMAxCD3; HC1: CD3B2089 HL scFv-Fc; also called BC3B111.001; B2089 HL
B23: BC3B106 (bispecific antibody, human IgG1, kappa, L234A L235A)
chain: B20 chain with I48M, W187L
heavy: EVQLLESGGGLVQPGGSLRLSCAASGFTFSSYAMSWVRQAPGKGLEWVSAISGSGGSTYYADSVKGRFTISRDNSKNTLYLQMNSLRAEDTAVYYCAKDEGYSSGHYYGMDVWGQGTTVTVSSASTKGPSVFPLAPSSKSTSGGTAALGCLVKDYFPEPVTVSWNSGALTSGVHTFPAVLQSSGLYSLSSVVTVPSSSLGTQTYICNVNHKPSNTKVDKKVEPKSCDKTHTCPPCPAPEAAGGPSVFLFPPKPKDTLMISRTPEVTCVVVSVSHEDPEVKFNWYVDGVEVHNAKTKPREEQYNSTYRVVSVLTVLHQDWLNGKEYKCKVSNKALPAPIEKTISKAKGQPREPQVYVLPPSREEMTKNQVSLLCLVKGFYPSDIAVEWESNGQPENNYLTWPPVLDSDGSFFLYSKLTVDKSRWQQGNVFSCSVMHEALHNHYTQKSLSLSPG
light: B20 light
notes: IgG1 BCMAxCD3; HC1: CD3B2051 HL scFv-Fc; also called BC3B106.001; B2051 HL

Biological target: T1, TRCW5 antigen (CD3δε-Fc-Avi) (biotinylated (site not stated))
T1 construct: also called recombinant CD3
Test: ELISA

T1 sequence (chain, as listed by the source mutant limits assumed): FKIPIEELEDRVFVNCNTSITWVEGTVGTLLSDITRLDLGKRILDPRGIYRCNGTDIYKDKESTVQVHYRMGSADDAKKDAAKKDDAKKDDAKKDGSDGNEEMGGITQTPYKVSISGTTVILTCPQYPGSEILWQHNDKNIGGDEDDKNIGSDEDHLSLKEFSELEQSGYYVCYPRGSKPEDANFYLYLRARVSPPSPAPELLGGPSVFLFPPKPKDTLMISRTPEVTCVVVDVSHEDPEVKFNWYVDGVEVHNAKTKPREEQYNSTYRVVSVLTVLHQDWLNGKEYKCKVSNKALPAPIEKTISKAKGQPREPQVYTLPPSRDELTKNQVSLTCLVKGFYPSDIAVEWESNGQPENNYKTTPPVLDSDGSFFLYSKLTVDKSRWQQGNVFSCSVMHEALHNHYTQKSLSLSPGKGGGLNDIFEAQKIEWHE

| Binder | EC50 [nM] |
| --- | --- |
| B1 | 8.84 |
| B2 | 8.79 |
| B3 | 8.05 |
| B4 | 17.9 |
| B5 | 15.2 |
| B6 | 11.2 |
| B7 | 11.2 |
| B8 | 11.1 |
| B9 | 11.4 |
| B10 | 8.73 |
| B11 | 10.1 |
| B12 | 10.9 |
| B13 | 13.8 |
| B14 | 10.9 |
| B15 | 11.1 |
| B16 | 10.3 |
| B17 | 12.1 |
| B18 | 10 |
| B19 | 10 |

Biological target: T1, TRCW5 antigen (CD3δε-Fc-Avi)
Test: ELISA after heat

| Binder | % Retained 55° C. [%] | % Retained 60° C. [%] | % Retained 65° C. [%] |
| --- | --- | --- | --- |
| B1 | 106 | 101 | 36 |
| B2 | 111 | 108 | 41 |
| B10 | 109 | 94 | 32 |
| B18 | 111 | 105 | 55 |

Biological target: T2, CD3 on primary human pan T cells (human, UniProt P07766 23-207)
T2 construct: on cells it stands in the TCR/CD3 complex; also called Pan T-cells (CD3-positive); endogenous CD3
Test: flow cytometry, pan T-cells

T2 sequence (P07766 23-207 limits assumed): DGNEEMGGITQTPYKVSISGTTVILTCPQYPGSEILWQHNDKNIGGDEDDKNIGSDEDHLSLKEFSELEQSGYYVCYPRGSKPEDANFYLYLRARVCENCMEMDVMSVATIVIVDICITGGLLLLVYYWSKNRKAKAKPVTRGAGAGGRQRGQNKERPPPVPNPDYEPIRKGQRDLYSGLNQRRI

| Binder | % Binding retained on T-cells, 55° C. [fraction] | % Binding retained on T-cells, 60° C. [fraction] | % Binding retained on T-cells, 65° C. [fraction] | % Binding retained on T-cells, RT [fraction] |
| --- | --- | --- | --- | --- |
| B1 | 1.05 | 1.1 | 0.757 | 1 |
| B2 | 1.08 | 0.494 | 0.111 | 1 |

Biological target: T1, TRCW5 antigen (CD3δε-Fc-Avi)
Test: binding after heat

| Binder | % Retained 55° C. [%] | % Retained 60° C. [%] | % Retained 65° C. [%] |
| --- | --- | --- | --- |
| B1 | 104 | 102 | 41.3 |
| B2 | 104 | 109 | 15.1 |
| B3 | 78.4 | 15.4 | 0.5 |
| B4 | 40.6 | 2.5 | 0.9 |
| B5 | 54.9 | 1.4 | 0.7 |
| B6 | 101 | 74.5 | 8.4 |
| B7 | 102 | 103 | 60.4 |
| B8 | 101 | 70.9 | 1.5 |
| B9 | 116 | 91.3 | 4 |
| B10 | 104 | 95 | 10.9 |
| B11 | 113 | 101 | 36.2 |
| B12 | 103 | 84.2 | 9 |
| B13 | 98.9 | 33.1 | 1.5 |
| B14 | 87.7 | 32.6 | 0.2 |
| B15 | 108 | 76.7 | 1.4 |
| B16 | 113 | 108 | 33.2 |
| B17 | 98.9 | 97 | 33.3 |
| B18 | 110 | 97.5 | 72.3 |
| B19 | 102 | 90.2 | 5.4 |

Biological target: T3, Human CD3 epsilon (CD3ε), on primary human pan T cells (human, UniProt P07766 23-207)
T3 construct: Endogenous CD3 in the TCR complex on T cells; also called T-cell surface glycoprotein CD3 epsilon chain; T3E
Test: flow cytometry on human T cells, anti-human IgG Fc A647 detection
Procedure: The bsAbs were assayed for their abilities bind T cells and to induce T-cell mediated cytotoxicity against H929 cells (ATCC@CRL-9068™). […] Stain buffer with no antibody was added to bottom 4 wells and assign as background control (secondary antibody alone). Parental Cris7b, CD3B695 (bivalent mAb controls) and CD3B375 (bsAb which was monovalent for Cris-7b) were added also with full dose-response curves.
Frozen T-cells were thawed in a 37° C. water bath and transferred gently into conical tube containing warm 5 mL media (RPMI+10% FBS)/1 vial of 1×10⁶ cells. Cells were mixed and centrifuged for 5 minutes at 400×g followed by resuspension in flow staining buffer, and counted and viability checked. Cells were then plated in 50 uL/50,000 cells/well into assay plates. Assay positive control mAb was added in the first column in quadruplicates at 2× at 20 nM in the bottom 4 wells. Stain buffer with no mAb was added to the top 4 wells and assigned as background controls (secondary antibody alone). Serially diluted antibody samples were added at 50 uL/well using Intergra Viaflo according to the attached plate maps and incubated for 1 hr at 37° C. After one hour incubation, 150 uL staining buffer were added to all wells, and cells were spun at 500×g for 5 minutes to pellet cells. Cells were then washed prior to addition of Alexa Fluor 647 (A647) conjugated anti human IgG Fc specific secondary detection antibody at 2 ug/mL in staining buffer. Secondary detection antibody was added at 50 uL/well to the washed cells. Plates were covered with foil and incubated for 30 minutes on ice or in the fridge. 150 uL staining buffer were added to all wells, and cells were spun at 500×g for 5 min to pellet cells. Cells were resuspended in 20 uL running buffer containing 1:1000 dilution of SYTOX™ green dead cell stain and run plates on iQue® Screener flow cytometer (Essen BioScience, Inc.). Briefly, cells were gated on FCS vs. SCS dot plot to eliminate debris. Singlets were gated on SCS-A vs SCS-H dot plot and from singlet population, live cells gated choosing BL1 channel for low/negative with SYTOX™ green viability stain (Thermo Fisher).

T3 sequence (P07766 23-207 limits assumed): as above

| Binder | EC50 [nM] |
| --- | --- |
| B20 | 3 |
| B21 | ≥ 300 |
| B22 | 6.4 |
| B23 | 6.8 |
